# Measurements published in patent publication US20210179698A1 (AstraZeneca / MedImmune, published 2021).
# Key:
# rat α-syn = rat α-syn (rat, UniProt P37377 1-140); assay: direct binding HTRF assay
# [1] = biological target: disease relevant pathological forms of human α-syn in Parkinson's disease brain tissue (human, UniProt P37840 1-140); assay: immunohistochemistry of Parkinson's disease brain tissue
# 1-60 = biological target: T1, 1-60 (human, UniProt P37840); assay: ELISA on coated α-syn truncates, anti-human IgG-HRP detection
# T1 construct: residues 1-60, N-terminal region only; coated on ELISA wells; also called α-syn truncate 1-60; aa1-60
# Protocol: (§1) Briefly, one microgram per milliliter of each truncate was coated to a microtitre well overnight at 4° C. […] Following 1 h incubation and washing the bound antibody was detected by addition of an anti-human IgG conjugated to either HRP or Eu³⁺. Subsequent to incubation and washing, the appropriate detection substrate was added (TMB or DELFIA Enhancer solution respectively) and the plate read on a microtitre plate reader.
# 1-95 = biological target: T2, 1-95 (human, UniProt P37840); assay: as above
# T2 construct: residues 1-95, N-terminal and NAC regions; coated on ELISA wells; also called α-syn truncate 1-95; aa1-95
# Protocol: as §1
# NCAP = biological target: T3, NCAP (human, UniProt P37840-2); assay: as above
# T3 construct: alternatively spliced form missing amino acids 103-129; coated on ELISA wells; also called alternatively spliced form of α-syn missing amino acids 103-129
# Protocol: as §1
# [2] = biological target: native, endogenously expressed intracellular human α-syn in SH-SY5Y neuroblastoma cells (human, UniProt P37840 1-140); assay: flow cytometry on fixed, permeabilised SH-SY5Y cells, anti-human IgG-FITC
# Protocol: After extensive washes, bound antibody was detected by incubation with an anti-human or anti-mouse IgG-FITC secondary antibody. Following further washes the cells were analyzed with a FACS Canto II apparatus (Becton Dickinson, Franklin Lakes, N.J.) and data analysis was performed using FlowJo Software (Tree Star, Ashland, Oreg.).
# 61-140 = biological target: T4, 61-140 (human, UniProt P37840); assay: ELISA on coated α-syn truncates (1 µg/ml coat, 1 µg/ml antibody), anti-human IgG-HRP detection
# T4 construct: residues 61-140, NAC plus C-terminal region; coated on ELISA wells; also called α-syn truncate 61-140; aa61-140
# Protocol: as §1
# 96-140 = biological target: T5, 96-140 (human, UniProt P37840); assay: as above
# T5 construct: residues 96-140, C-terminal region only; coated on ELISA wells; also called α-syn truncate 96-140; C-terminal region only
# Protocol: as §1
# ΔNAC = biological target: T6, ΔNAC (human, UniProt P37840); assay: as above
# T6 construct: NAC region deleted; coated on ELISA wells; also called ANAC; α-syn with NAC region deleted
# Protocol: as §1
# [3] = biological target: human alpha-synuclein (recombinant) (human, UniProt P37840 1-140); assay: as above
# Protocol: as §1
# [4] = biological target: T7, human beta-synuclein (recombinant) (human, UniProt Q16143 1-134); assay: HTRF epitope competition: unlabelled synuclein titrated against biotinylated human α-syn for binding to aslo0543
# T7 construct: also called β-syn; β-synuclein
# Protocol: (§2) IC₅₀ values were determined by curve fitting the data to a four parameter logistic equation using PRISM 6® software (Graphpad). […] For the negative control, the antibody test sample was replaced with an isotype control antibody or buffer only.
# [5] = biological target: T8, human gamma-synuclein (recombinant) (human, UniProt O76070 1-127); assay: as above
# T8 construct: also called γ-syn; γ-synuclein
# Protocol: as §2
# aggregated human α-syn = aggregated human α-syn (human, UniProt P37840 1-140); assay: DELFIA pair-wise capture ELISA: mouse IgG1 version of the antibody as capture, human IgG1 TM version of the same antibody as detection, anti-human IgG-Eu
# Protocol: Subsequent to incubation and washing, the appropriate detection substrate was added (TMB or DELFIA Enhancer solution respectively) and the plate read on a microtitre plate reader.
# [6] = biological target: T7, human beta-synuclein (recombinant); assay: HTRF epitope competition: unlabelled synuclein titrated against biotinylated human α-syn for binding to aslo0452 ngl-3
# Protocol: as §2
# [7] = biological target: T8, human gamma-synuclein (recombinant); assay: as above
# Protocol: as §2
Binder,binding result (rat α-syn),binding result [1],binding result (1-60),binding result (1-95),binding result (NCAP),binding result [2],binding result (61-140),binding result (96-140),binding result (ΔNAC),binding result [3],binding result [4],binding result [5],binding result (aggregated human α-syn),binding result [6],binding result [7]
"aslo0543 (antibody, human IgG1, lambda, V domains shown, also called aslo0543 IgG) VH: not shown VL: QAVLTQPASLSASPGASASLTCTLRSSGDFSRYRIYWYQQKPGSPPQYLLRYKSDADKHQGSGVPSRFSGSKDASANAGILLISGLQSEDEADYYCMVWSSGAWYFGGGTKLTVLG",binds,binds,no binding (tested: 1 µg/ml (single concentration)),no binding (tested: 1 µg/ml (single concentration)),no binding (tested: 1 µg/ml (single concentration)),binds,binds,binds,binds,binds,no binding,no binding,binds,–,–
"aslo0452 ngl-3 (antibody, human IgG1, lambda, V domains shown, also called aslo0452 ngl-3 IgG; aslo0452-ngl3-hIgG1TM) VH: EVQLLESGGGLVQPGGSLRLSCAASGFTFSSYAMSWVRQAPGKGLEWVSSISHLGGSTYYADSVKGRFTISRDNSKNTLYLQMNSLRAEDTAVYYCAGGANHGKYYYGMDKWGQGTTVTVSS VL: QAVLTQPASLSASPGASASLTCTLRSGAPLPKYRIYWYQQKPGSPPQYLLRYKSDADKHQGSGVPSRFSGSKDASANAGILLISGLQSEDEADYYCMVWDHGVWYFGGGTKLTVLG",–,–,no binding (tested: 1 µg/ml (single concentration)),–,–,–,–,binds,binds,–,–,–,–,no binding,no binding
